Measurements reported in patent US20140228277A1 (Genentech, published 2014).
Positions of bridges follow the written chain, without caps; N, C: chain ends. Non-standard residues stand in square brackets, D forms with d. No end group written: not given here. Cit = NC(=O)NCCC[C@H](N)C(=O)O; Orn = NCCC[C@H](N)C(=O)O

B1: BMS4 (peptide)
peptide: Ac-YPYFIPL-NH2
notes: also called Peptide 4 of Kornacker et al
B2: BACE020 (peptide)
peptide: Ac-NEESMYCRLLGIGCG-NH2
modifications: disulfide 7-14
SMILES: CC[C@H](C)[C@@H]1NC(=O)CNC(=O)[C@H](CC(C)C)NC(=O)[C@H](CC(C)C)NC(=O)[C@H](CCCNC(=N)N)NC(=O)[C@@H](NC(=O)[C@H](Cc2ccc(O)cc2)NC(=O)[C@H](CCSC)NC(=O)[C@H](CO)NC(=O)[C@H](CCC(=O)O)NC(=O)[C@H](CCC(=O)O)NC(=O)[C@H](CC(N)=O)NC(C)=O)CSSC[C@@H](C(=O)NCC(N)=O)NC(=O)CNC1=O
notes: also called BACE20; BACE-20
B3: BACE060 (peptide)
peptide: Ac-ESMYC[Cit]LLGIGCG-NH2
modifications: disulfide 5-12 (inferred)
notes: also called BACE030 with Arg to citrulline
B4: phage-displayed peptide BACE020 (SEQ ID NO 16) (peptide)
chain: NEESMYCRLLGIGCG
modifications: disulfide 7-14; also: displayed on M13 phage as N-terminal fusion to the coat protein
notes: not shown: M13 major coat protein; peptide fused to its N-terminus
B5: BACE059 (peptide)
peptide: Ac-ESMYC[Orn]LLGIGCG-NH2
modifications: disulfide 5-12 (inferred)
notes: also called BACE030 with Arg to ornithine
B6: phage-displayed peptide BACE021 (SEQ ID NO 17) (peptide)
chain: PEESLYCRLLALGCG
notes: as for B4
B7: phage-displayed peptide BACE018 (SEQ ID NO 14) (peptide)
chain: KEESIYCRLMGLGCG
notes: as for B4
B8: BACE030 (peptide)
peptide: Ac-ESMYCRLLGIGCG-NH2
modifications: disulfide 5-12
SMILES: CC[C@H](C)[C@@H]1NC(=O)CNC(=O)[C@H](CC(C)C)NC(=O)[C@H](CC(C)C)NC(=O)[C@H](CCCNC(=N)N)NC(=O)[C@@H](NC(=O)[C@H](Cc2ccc(O)cc2)NC(=O)[C@H](CCSC)NC(=O)[C@H](CO)NC(=O)[C@H](CCC(=O)O)NC(C)=O)CSSC[C@@H](C(=O)NCC(N)=O)NC(=O)CNC1=O
notes: Minimal version of BACE020 with full activity
B9: BMS1 (peptide)
peptide: Ac-NLTTYPYFIPLP-NH2
notes: also called Peptide 1 of Kornacker et al
B10: phage-displayed peptide BACE019 (SEQ ID NO 15) (peptide)
chain: NELSPYCRLMGLGCD
notes: as for B4
B11: BMS2 (peptide)
peptide: Ac-ALYPYFLPISAK-NH2
notes: also called Peptide 2 of Kornacker et al

What was measured:
[1] = biological target: T1, recombinant human BACE1 (rhBACE1) (human, UniProt P56817 22-457, limits assumed); test: cell-based or functional assay
T1 sequence (P56817 22-457 limits assumed): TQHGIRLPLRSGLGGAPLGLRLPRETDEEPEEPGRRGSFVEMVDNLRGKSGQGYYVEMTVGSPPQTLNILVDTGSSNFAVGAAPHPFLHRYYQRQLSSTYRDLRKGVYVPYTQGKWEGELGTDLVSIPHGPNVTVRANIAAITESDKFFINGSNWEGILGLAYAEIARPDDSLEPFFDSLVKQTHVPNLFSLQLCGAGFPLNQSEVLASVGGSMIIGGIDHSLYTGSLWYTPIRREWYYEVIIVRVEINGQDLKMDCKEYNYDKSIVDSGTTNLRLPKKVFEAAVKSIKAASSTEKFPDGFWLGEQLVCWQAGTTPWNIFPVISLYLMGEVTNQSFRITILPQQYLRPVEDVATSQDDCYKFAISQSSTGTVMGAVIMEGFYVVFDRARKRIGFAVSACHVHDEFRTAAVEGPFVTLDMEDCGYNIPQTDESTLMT

[2] = biological target: T1, recombinant human BACE1 (rhBACE1); test: FP competition binding; 12 nM rhBACE1, competitor probe 5-TAMRA-BACE020
Procedure: BACE1 binding assays were carried out in a final volume of 10 μL per well in black 384-well microplates (Proxiplate-Plus; Perkin Elmer, Waltham, Mass.). […] The reaction was permitted to proceed towards equilibrium for 2 h at ambient temperature prior to fluorescence polarization measurement using Envision (Perkin Elmer). The parallel and perpendicular fluorescent emissions measured in each well at 595 nm (excitation 531 nm polarized light) were used to determine the milli-polarization level (mP) using the following formula: mP=1000*(S−G*P)/(S+G*P) where S=parallel emission, P=perpendicular emission and G=0.65.
The affinities of BACE1 peptide ligands were measured using the abovementioned competition binding FP assay for determining IC₅₀ values with serially diluted peptides. A Caliper assay was used to measure the inhibition of BACE1 enzymatic activity by peptide ligands.

[3] = biological target: T1, recombinant human BACE1 (rhBACE1); test: spot phage ELISA, plate-immobilized BACE1 against BSA
[4] = biological target: T1, recombinant human BACE1 (rhBACE1); test: spot phage ELISA, signal on BACE1 over signal on BSA
Procedure: After 4 rounds of binding selection, individual phage clones were analyzed in a high-throughput spot phage ELISA (Sidhu, S. S. et al. (2000) Methods Enzymol 328: 333-63) using plate-immobilized BACE1 as the target. The binding signal of the same phage particle to BSA was detected as non-specific binding noise. Clones with phage binding signal to target over 0.5 and signal/noise ratio>3 were considered to be positive clones and were subjected to DNA sequence analysis.

Row | Binder | Caliper (MCE) BACE1 activity assay, EC50 (rate increased) [1] | IC50 [2] | Caliper (MCE) BACE1 activity assay IC50 [1] | HTRF BACE1 activity assay IC50 [1] | fold improvement of signal/noise ratio over parent BACE017 [3] | signal/noise ratio [4]
1 | B1 | 1760 nM | > 10000 nM |  |  |  | 
2 | B2 |  | 11 nM | 11 nM | 12 nM |  | 
3 | Ac-SGPYFIEYMSAV-NH2 (also called BACE10) [BACE010 (Ac-SGPYFIEYMSAV-NH2)] | 2200 nM | > 10000 nM |  |  |  | 
4 | Ac-PEESLYCRLLALGCG-NH2 (disulfide 7-14 (inferred), also called BACE-21) [BACE021] |  | 25 nM | 17 nM | 22 nM |  | 
5 | B3 |  | 2300 nM | 772 nM |  |  | 
6 | Ac-EESMYCRLLGIGCG-NH2 (disulfide 6-13 (inferred), N-terminal truncation of BACE020) [BACE029] |  | 12 nM | 13 nM |  |  | 
7 | Ac-SMYCRLLGIGCG-NH2 (disulfide 4-11 (inferred), also called BACE31) [BACE031] |  | 2600 nM | 1280 nM |  |  | 
8 | Ac-AEESMYCRLLGIGCG-NH2 (disulfide 7-14 (inferred), also called BACE020 position 1 to Ala) [BACE042] |  | 31 nM | 12 nM |  |  | 
9 | Ac-NAESMYCRLLGIGCG-NH2 (disulfide 7-14 (inferred), also called BACE020 Glu2 to Ala) [BACE043] |  | 41 nM | 13 nM |  |  | 
10 | Ac-NEESMYCALLGIGCG-NH2 (disulfide 7-14 (inferred), also called BACE020 Arg8 to Ala mutant) [BACE048] |  | > 10000 nM | > 10000 nM |  |  | 
11 | Ac-NEESMYCRLLGIGCA-NH2 (disulfide 7-14 (inferred), also called BACE020 Gly15 to Ala) [BACE054] |  | 12 nM | 7 nM |  |  | 
12 | Ac-NEESMYCRLLGIACG-NH2 (disulfide 7-14 (inferred), also called BACE020 Gly13 to Ala) [BACE053] |  | 37 nM | 7 nM |  |  | 
13 | Ac-NEESAYCRLLGIGCG-NH2 (disulfide 7-14 (inferred), also called BACE020 Met5 to Ala) [BACE046] |  | 1570 nM | 435 nM |  |  | 
14 | Ac-NEESMYCRLAGIGCG-NH2 (disulfide 7-14 (inferred), also called BACE020 Leu10 to Ala) [BACE050] |  | 186 nM | 49 nM |  |  | 
15 | Ac-NEEHMYCRLLGIGCG-NH2 (disulfide 7-14 (inferred), also called BACE020 Ser4 to His) [BACE056] |  | 4500 nM | 3580 nM |  |  | 
16 | Ac-NEESMFCRLLGIGCG-NH2 (disulfide 7-14 (inferred), also called BACE020 Tyr6 to Phe) [BACE055] |  | 27 nM | 11 nM |  |  | 
17 | Ac-NEEAMYCRLLGIGCG-NH2 (disulfide 7-14 (inferred), also called BACE020 Ser4 to Ala) [BACE045] |  | 2340 nM | 304 nM |  |  | 

Row | Binder | Caliper (MCE) BACE1 activity assay, EC50 (rate increased) [1] | IC50 [2] | Caliper (MCE) BACE1 activity assay IC50 [1] | HTRF BACE1 activity assay IC50 [1] | fold improvement of signal/noise ratio over parent BACE017 [3] | signal/noise ratio [4]
18 | Ac-NEESMACRLLGIGCG-NH2 (disulfide 7-14 (inferred), also called BACE020 Tyr6 to Ala) [BACE047] |  | 225 nM | 93 nM |  |  | 
19 | Ac-NEASMYCRLLGIGCG-NH2 (disulfide 7-14 (inferred), also called BACE020 Glu3 to Ala) [BACE044] |  | 131 nM | 46 nM |  |  | 
20 | Ac-NEESMYCRLLAIGCG-NH2 (disulfide 7-14 (inferred), also called BACE020 Gly11 to Ala) [BACE051] |  | 36 nM | 18 nM |  |  | 
21 | Ac-NEESMYCRALGIGCG-NH2 (disulfide 7-14 (inferred), also called BACE020 Leu9 to Ala) [BACE049] |  | 7700 nM | 1380 nM |  |  | 
22 | Ac-NEESMYCRLLGAGCG-NH2 (disulfide 7-14 (inferred), also called BACE020 Ile12 to Ala) [BACE052] |  | 39 nM | 14 nM |  |  | 
23 | B4 |  |  |  |  | > 5 fold | > 20
24 | B5 |  | 512 nM | 222 nM |  |  | 
25 | B6 |  |  |  |  | > 5 fold | > 20
26 | Ac-NELSPYCRLMGLGCD-NH2 (disulfide 7-14 (inferred), also called BACE-19) [BACE019] |  | 10 nM | 15 nM | 10 nM |  | 
27 | Ac-KEESIYCRLMGLGCG-NH2 (disulfide 7-14 (inferred), also called BACE-18) [BACE018] |  | 102 nM | 54 nM | 77 nM |  | 
28 | B7 |  |  |  |  | > 5 fold | > 20
29 | B8 |  | 23 nM | 18 nM |  |  | 
30 | Ac-ESMYCKLLGIGCG-NH2 (disulfide 5-12 (inferred), also called BACE030 with Arg to lysine) [BACE058] |  | 486 nM | 74 nM |  |  | 
31 | B9 | 227 nM | > 10000 nM |  |  |  | 
32 | B10 |  |  |  |  | > 5 fold | > 20
33 | B11 | 26400 nM | > 10000 nM |  |  |  | 
